In assay [1] the target is T1, Cyno FAP.
T1 chain: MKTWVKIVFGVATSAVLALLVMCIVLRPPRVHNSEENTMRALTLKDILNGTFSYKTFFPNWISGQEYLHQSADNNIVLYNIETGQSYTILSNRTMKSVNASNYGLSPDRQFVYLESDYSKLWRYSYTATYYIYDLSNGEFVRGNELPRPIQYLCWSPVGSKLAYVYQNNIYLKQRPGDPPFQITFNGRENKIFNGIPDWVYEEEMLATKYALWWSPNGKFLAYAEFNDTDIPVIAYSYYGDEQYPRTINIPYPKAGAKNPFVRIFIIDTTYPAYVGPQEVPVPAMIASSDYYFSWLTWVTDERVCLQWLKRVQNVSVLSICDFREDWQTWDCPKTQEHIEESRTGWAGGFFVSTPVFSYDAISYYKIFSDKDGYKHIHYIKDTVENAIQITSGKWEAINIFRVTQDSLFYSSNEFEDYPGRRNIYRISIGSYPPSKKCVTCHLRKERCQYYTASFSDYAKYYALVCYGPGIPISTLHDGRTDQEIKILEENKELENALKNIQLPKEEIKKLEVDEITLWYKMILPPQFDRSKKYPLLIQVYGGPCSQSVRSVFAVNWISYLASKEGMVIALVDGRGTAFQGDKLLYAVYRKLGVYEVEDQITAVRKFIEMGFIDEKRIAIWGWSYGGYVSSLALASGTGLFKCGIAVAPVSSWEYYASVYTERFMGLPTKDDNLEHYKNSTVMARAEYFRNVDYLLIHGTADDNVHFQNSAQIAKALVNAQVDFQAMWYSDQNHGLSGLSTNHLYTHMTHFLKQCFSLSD
Nature of the assay: Octet. (In BLI a coated tip is dipped into the sample, and binding shifts an interference pattern.)

Assay [2] deals with T2, His-tagged human FAP (human, UniProt Q12884 26-760). Nature of the assay: Octet.
In assay [3] the target is T1, Cyno FAP. Kind of assay: Octet; apparent KD.
Assay [4] addresses T2, His-tagged human FAP. Kind of assay: Octet; apparent KD.

A value given as a limit tells only on which side of the number the result lay.

B1: XENP23930 (29B11, bottle-opener) (antibody)
chain 1: EVQLLESGGGLVQPGGSLRLSCAASGFTFSSYAMSWVRQAPGKGLEWVSAIIGSGGITYYADSVKGRFTISRDNSKNTLYLQMNSLRAEDTAVYYCAKGWFGGFNYWGQGTLVTVSSASTKGPSVFPLAPSSKSTSGGTAALGCLVKDYFPEPVTVSWNSGALTSGVHTFPAVLQSSGLYSLSSVVTVPSSSLGTQTYICNVNHKPSDTKVDKKVEPKSCDKTHTCPPCPAPPVAGPSVFLFPPKPKDTLMISRTPEVTCVVVDVKHEDPEVKFNWYVDGVEVHNAKTKPREEEYNSTYRVVSVLTVLHQDWLNGKEYKCKVSNKALPAPIEKTISKAKGQPREPQVYTLPPSREEMTKNQVSLTCDVSGFYPSDIAVEWESDGQPENNYKTTPPVLDSDGSFFLYSKLTVDKSRWEQGDVFSCSVMHEALHNHYTQKSLSLSPGK
chain 2: not shown
chain 3: EIVLTQSPGTLSLSPGERATLSCRASQSVTSSYLAWYQQKPGQAPRLLINVGSRRATGIPDRFSGSGSGTDFTLTISRLEPEDFAVYYCQQGIMLPPTFGQGTKVEIKRTVAAPSVFIFPPSDEQLKSGTASVVCLLNNFYPREAKVQWKVDNALQSGNSQESVTEQDSKDSTYSLSSTLTLSKADYEKHKVYACEVTHQGLSSPVTKSFNRGEC
Turning to B1, the Kd in assay [1] turned out to be 26.4 pM; in assay [2], 4.82 pM.

B2: XENP23932 (29B11, central-scFv) (antibody)
chain 1: B1 chain 1
chain 2: EVQLLESGGGLVQPGGSLRLSCAASGFTFSSYAMSWVRQAPGKGLEWVSAIIGSGGITYYADSVKGRFTISRDNSKNTLYLQMNSLRAEDTAVYYCAKGWFGGFNYWGQGTLVTVSSASTKGPSVFPLAPSSKSTSGGTAALGCLVKDYFPEPVTVSWNSGALTSGVHTFPAVLQSSGLYSLSSVVTVPSSSLGTQTYICNVNHKPSNTKVDKKVEPKSCGGGGSGGGGSEVQLVESGGGLVQPGGSLRLSCAASGFTFSTYAMNWVRQAPGKGLEWVGRIRSKYNNYATYYADSVKGRFTISRDDSKNTLYLQMNSLRAEDTAVYYCVRHGNFGDSYVSWFAYWGQGTLVTVSSGKPGSGKPGSGKPGSGKPGSQAVVTQEPSLTVSPGGTVTLTCGSSTGAVTTSNYANWVQQKPGKSPRGLIGGTNKRAPGVPARFSGSLLGGKAALTISGAQPEDEADYYCALWYSNHWVFGGGTKLTVLGGGGSGGGGSKTHTCPPCPAPPVAGPSVFLFPPKPKDTLMISRTPEVTCVVVDVKHEDPEVKFNWYVDGVEVHNAKTKPREEQYNSTYRVVSVLTVLHQDWLNGKEYKCKVSNKALPAPIEKTISKAKGQPREPQVYTLPPSREQMTKNQVKLTCLVKGFYPSDIAVEWESNGQPENNYKTTPPVLDSDGSFFLYSKLTVDKSRWQQGNVFSCSVMHEALHNHYTQKSLSLSPGK
chain 3: B1 chain 3
As for B2, the Kd in assay [3] was 22.9 pM; in assay [4] it was < 1 pM.

B3: XENP23934 (3F2, bottle-opener) (antibody)
chain 1: not shown
chain 2: not shown
chain 3: B1 chain 3
Turning to B3, the Kd in assay [1] was found to be 3160 pM; in assay [2], 5460 pM.

Source of the values: patent publication US20210253736A1 (published 2021).
